We go through one substance from US9358302.

The experiment addresses GBSIII-OVAp (GBSIII conjugated to OVAp19). Briefly: cell-based or functional assay.

“T-cell receptor of DO11.10 transgenic mice that recognizes OVA peptide 323-339 in the context of MHC class II (I-A^d) (TCR)”: the T cell proliferation, stimulation index (SI), 10 µg GBSIII-OVAp is 53.6 SI and the fold decrease in T cell proliferation against OVAp of the same amount turned out to be 60 fold.
